According to publication PMC10509167, “Identification and characterization of endo-α-, exo-α-, and exo-β-D-arabinofuranosidases degrading lipoarabinomannan and arabinogalactan of mycobacteria” (Nature Communications, 2023):

Molecular target: the molecule itself
Assay: crystal structure; ExoMA2 in complex with Tris (1.75 Å) and with β-D-Araf (1.35 Å); dimer in the asymmetric unit; sitting-drop vapor diffusion, 20 °C

B1: ExoMA2 (MIAR_33170), GH116 exo-β-D-arabinofuranosidase from Microbacterium arabinogalactanolyticum, recombinant (enzyme, UniProt A0AAJ6N6D6 1-867, looked up)
chain: MSKIKSRRARRIPHTAESVAFPLGGIGTGNVSLGARGELRDWEFENLPDKGRLNPRSFFAIHAAPQGGPSATRVLEARSSGRHDRDAGYGFDELAGLPRLDSAGLHGEYPVVDIDFTDATLPVTVSLHAFTPLVPLDADASGIPAAVLRYRVVNPGDAPVTVTVVGSMSHTAGRGAPGPDAPWGMRGTQSVRWRESDGIRGLDFDIDLDHDDPGYGTMSLTTTDSSTTVKPQWVTSYWPDGARLFWNDLADDGLLAPEARLTLEDKPRGLFAERDADPDAPALTEEQMLAKLPRVRTGSLGIVHTLAPGEERDFEFVLAWSFPNRRRGWHGHIIFDDALEDGAPDLRDELGPIVRNHYAVRWPDAWAAAAQLHRDLPALEGATDAFVEELYGGSLDPVLADAVGANIAALRSTTCFVLESPTPELGDGPVFAAWEGSFDHGGSCEGTCTHVWSYAQTAAWLFPGLERSARRAEYLLETDESGAQKFRGNRIFGAPRWFIGPAVDGQLGTFLRLHREWRFCGDDEFLRELWPAAARTLDYAAREWDHDGDGLLDGEMHNTYDIEFHGVEPLSNIIHLAALRAGVRMAGHLGDTARAQEWALRADHVAAAIEGVLWNGEYYRQVIDDVDAHRYQYGDGVLSDQLLGQFHAFLGGLGYLLPEAHVRSALDAIVQHNHRGDLRDHESTQRVYALNDEGGLLLASWPEGGRPALPFVYADEVWTGIEHQVAVSLLFAGRYDDALRIERTLRARYDGAHRSPWNEIECGNHYARSLASWGLLIGASGAQWDAGARTLSFDPVLPGDARFLFTTATGWGGVEIGDDVITLRLHGGALDLDELRLRGEVAGRGIHLDAGETRTLTLTLEHHHHHH
notes: ExoMA2, product of gene MIAR_33170 of Microbacterium arabinogalactanolyticum JCM 9171; primers are in Supplementary Data 3; source: E. coli BL21 (DE3), purified (IMAC, anion exchange chromatography, SEC)
stoichiometry N: 2
